Experimental data reported in patent US20080026996A1, “Selective Vpac2 Receptor Reptide Agonists” (ELI LILLY AND COMPANY, priority 2004, published 2008).
Where no end group is shown, it is not given here. [ ]: non-standard residue; d: D form.

The binders below were run against T1, human VPAC2 receptor (human, UniProt P41587 24-438) (assay: cell-based or functional assay).
T1 sequence (looked up): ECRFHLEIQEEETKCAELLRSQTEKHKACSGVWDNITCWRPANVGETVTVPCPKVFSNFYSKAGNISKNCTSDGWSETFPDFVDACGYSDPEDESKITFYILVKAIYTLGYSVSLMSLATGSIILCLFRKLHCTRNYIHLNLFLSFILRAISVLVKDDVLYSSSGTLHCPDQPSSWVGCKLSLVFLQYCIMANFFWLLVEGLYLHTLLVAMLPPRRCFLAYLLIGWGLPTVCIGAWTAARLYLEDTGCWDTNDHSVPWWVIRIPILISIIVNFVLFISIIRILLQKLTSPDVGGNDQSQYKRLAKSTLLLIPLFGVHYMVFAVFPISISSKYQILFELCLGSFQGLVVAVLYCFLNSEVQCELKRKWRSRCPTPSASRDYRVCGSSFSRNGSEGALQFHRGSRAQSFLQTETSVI

| Binder | EC50 cAMP, DiscoveRx [nM] | EC50 cAMP, Alpha Screen [nM] |
| --- | --- | --- |
| HSDAVFTDNYTRLRKQVAAKKYLQSIKNKRYC [P37] | 1.68 |  |
| H[dS]DAVFTDNYTRLRKQVAAKKYLQSIKNKRYGGPSSGAPPPS [P48] | 9.55 |  |
| Ac-HSDAVFTDNYTRLRKQVAAKKYLQSIKNKRYGGPSSGAPPPS [P33] | 0.86 | 0.73 |
| HSDAVFTDNWTRLRKQVAAKKYLQSIKNKRYGGPSSGAPPPS [P27] | 27.6 |  |
| HGDAVFTDNYTRLRKQVAAKKYLQSIKNKRYGGPSSGAPPPS [P43] | 5.37 |  |
| HSDWVFTDNYTRLRKQVAAKKYLQSIKNKRYGGPSSGAPPPS [P56] | 109 |  |
| HSDYVFTDNYTRLRKQVAAKKYLQSIKNKRYGGPSSGAPPPS [P51] | 91.1 |  |
| HVDAVFTDNYTRLRKQVAAKKYLQSIKNKRYGGPSSGAPPPS (not fully specified) [P44] | 0.92 |  |
| HSDTVFTDNYTRLRKQVAAKKYLQSIKNKRYGGPSSGAPPPS [P54] | 32.8 |  |
| HLDAVFTDNYTRLRKQVAAKKYLQSIKNKRYGGPSSGAPPPS [P46] | 121 |  |
| HSDFVFTDNYTRLRKQVAAKKYLQSIKNKRYGGPSSGAPPPS [P52] | 140 |  |
| HSDAVFTDNYTRLRKQVAAKKYLQSIKNKRHGGPSSGAPPPS [P28] | 3.92 |  |
| HPDAVFTDNYTRLRKQVAAKKYLQSIKNKRYGGPSSGAPPPS [P49] | 13.4 |  |
| HTDAVFTDNYTRLRKQVAAKKYLQSIKNKRYGGPSSGAPPPS [P45] | 11.6 |  |
| HSDLVFTDNYTRLRKQVAAKKYLQSIKNKRYGGPSSGAPPPS (not fully specified) [P55] | 15.3 |  |
| HSDVVFTDNYTRLRKQVAAKKYLQSIKNKRYGGPSSGAPPPS [P53] | 50.5 |  |
| HSDAVFTDNYTRLRKQVAAKKYLQSIKNKRF [P34] | 2.28 | 2.44 |

The binders below were run against T2, human VPAC1 receptor (human, UniProt P32241 31-457) (assay: cell-based or functional assay).
T2 sequence (looked up): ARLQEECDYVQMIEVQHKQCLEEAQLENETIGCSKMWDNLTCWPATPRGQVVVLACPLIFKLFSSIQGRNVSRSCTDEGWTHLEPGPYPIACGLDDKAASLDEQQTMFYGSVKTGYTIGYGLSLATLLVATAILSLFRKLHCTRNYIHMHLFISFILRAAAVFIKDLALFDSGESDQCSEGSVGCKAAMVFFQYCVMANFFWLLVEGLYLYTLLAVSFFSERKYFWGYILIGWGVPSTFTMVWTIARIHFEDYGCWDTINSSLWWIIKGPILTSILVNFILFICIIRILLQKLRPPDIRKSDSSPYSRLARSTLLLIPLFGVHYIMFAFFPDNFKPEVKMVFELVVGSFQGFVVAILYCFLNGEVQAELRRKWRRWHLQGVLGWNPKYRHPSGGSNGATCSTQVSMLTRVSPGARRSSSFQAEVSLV

| Binder | EC50 cAMP, DiscoveRx [nM] |
| --- | --- |
| HSDAVFTDNYTRLRKQVAAKKYLQSIKNKRYC [P37] | 6.4 |
| H[dS]DAVFTDNYTRLRKQVAAKKYLQSIKNKRYGGPSSGAPPPS [P48] | 9.93 |
| Ac-HSDAVFTDNYTRLRKQVAAKKYLQSIKNKRYGGPSSGAPPPS [P33] | 4.7 |
| HSDAVFTDNWTRLRKQVAAKKYLQSIKNKRYGGPSSGAPPPS [P27] | 5.2 |
| HGDAVFTDNYTRLRKQVAAKKYLQSIKNKRYGGPSSGAPPPS [P43] | 75.6 |
| HSDWVFTDNYTRLRKQVAAKKYLQSIKNKRYGGPSSGAPPPS [P56] | 9.96 |
| HSDYVFTDNYTRLRKQVAAKKYLQSIKNKRYGGPSSGAPPPS [P51] | 3.61 |
| HVDAVFTDNYTRLRKQVAAKKYLQSIKNKRYGGPSSGAPPPS (not fully specified) [P44] | 5.5 |
| HSDTVFTDNYTRLRKQVAAKKYLQSIKNKRYGGPSSGAPPPS [P54] | 84.1 |
| HLDAVFTDNYTRLRKQVAAKKYLQSIKNKRYGGPSSGAPPPS [P46] | 57.5 |
| HSDFVFTDNYTRLRKQVAAKKYLQSIKNKRYGGPSSGAPPPS [P52] | 37.5 |
| HSDAVFTDNYTRLRKQVAAKKYLQSIKNKRHGGPSSGAPPPS [P28] | 2.6 |
| HPDAVFTDNYTRLRKQVAAKKYLQSIKNKRYGGPSSGAPPPS [P49] | 22.8 |
| HTDAVFTDNYTRLRKQVAAKKYLQSIKNKRYGGPSSGAPPPS [P45] | 1.75 |
| HSDLVFTDNYTRLRKQVAAKKYLQSIKNKRYGGPSSGAPPPS (not fully specified) [P55] | 134 |
| HSDVVFTDNYTRLRKQVAAKKYLQSIKNKRYGGPSSGAPPPS [P53] | 118 |
| HSDAVFTDNYTRLRKQVAAKKYLQSIKNKRF [P34] | 0.8 |

The binders below were run against T3, human PAC1 receptor (human, UniProt P41586 21-468) (assay: cell-based or functional assay).
T3 sequence (looked up): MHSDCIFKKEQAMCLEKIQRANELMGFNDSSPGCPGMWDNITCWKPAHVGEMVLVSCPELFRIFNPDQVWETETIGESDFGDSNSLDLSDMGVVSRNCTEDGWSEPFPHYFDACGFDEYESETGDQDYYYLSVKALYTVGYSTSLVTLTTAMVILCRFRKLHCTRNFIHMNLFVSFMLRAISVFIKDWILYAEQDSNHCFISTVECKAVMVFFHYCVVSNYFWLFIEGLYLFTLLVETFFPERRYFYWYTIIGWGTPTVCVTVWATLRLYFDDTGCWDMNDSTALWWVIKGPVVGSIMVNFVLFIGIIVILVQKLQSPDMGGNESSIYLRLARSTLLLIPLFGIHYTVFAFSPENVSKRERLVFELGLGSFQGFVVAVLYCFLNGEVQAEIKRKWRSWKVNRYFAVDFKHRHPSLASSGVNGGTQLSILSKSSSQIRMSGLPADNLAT

| Binder | EC50 cAMP, DiscoveRx [nM] |
| --- | --- |
| HSDAVFTDNYTRLRKQVAAKKYLQSIKNKRYC [P37] | 35.6 |
| H[dS]DAVFTDNYTRLRKQVAAKKYLQSIKNKRYGGPSSGAPPPS [P48] | 95.9 |
| Ac-HSDAVFTDNYTRLRKQVAAKKYLQSIKNKRYGGPSSGAPPPS [P33] | 112 |
| HSDAVFTDNWTRLRKQVAAKKYLQSIKNKRYGGPSSGAPPPS [P27] | > 100 |
| HGDAVFTDNYTRLRKQVAAKKYLQSIKNKRYGGPSSGAPPPS [P43] | 104 |
| HSDWVFTDNYTRLRKQVAAKKYLQSIKNKRYGGPSSGAPPPS [P56] | 405 |
| HSDYVFTDNYTRLRKQVAAKKYLQSIKNKRYGGPSSGAPPPS [P51] | > 1000 |
| HVDAVFTDNYTRLRKQVAAKKYLQSIKNKRYGGPSSGAPPPS (not fully specified) [P44] | 36.6 |
| HSDTVFTDNYTRLRKQVAAKKYLQSIKNKRYGGPSSGAPPPS [P54] | > 1000 |
| HLDAVFTDNYTRLRKQVAAKKYLQSIKNKRYGGPSSGAPPPS [P46] | > 1000 |
| HSDFVFTDNYTRLRKQVAAKKYLQSIKNKRYGGPSSGAPPPS [P52] | > 1000 |
| HSDAVFTDNYTRLRKQVAAKKYLQSIKNKRHGGPSSGAPPPS [P28] | 53.6 |
| HPDAVFTDNYTRLRKQVAAKKYLQSIKNKRYGGPSSGAPPPS [P49] | 44.2 |
| HTDAVFTDNYTRLRKQVAAKKYLQSIKNKRYGGPSSGAPPPS [P45] | 316 |
| HSDLVFTDNYTRLRKQVAAKKYLQSIKNKRYGGPSSGAPPPS (not fully specified) [P55] | > 1000 |
| HSDVVFTDNYTRLRKQVAAKKYLQSIKNKRYGGPSSGAPPPS [P53] | > 1000 |
| HSDAVFTDNYTRLRKQVAAKKYLQSIKNKRF [P34] | 80.5 |
